In patent US20130281314A1:

Columns and labels:
[1] = molecular target: USP10; assay: anti-HA IP-MS, WT HCT116 cells
[2] = molecular target: USP8 (human) (UniProt P40818); assay: anti-HA IP-MS, WT HCT116 cells
[3] = molecular target: USP11 (human) (UniProt P51784); assay: anti-HA IP-MS, WT HCT116 cells
[4] = molecular target: USP24 (human) (UniProt Q9UPU5); assay: anti-HA IP-MS, WT HCT116 cells
[5] = molecular target: UCHL1 (UniProt P09936); assay: anti-HA IP-MS, WT HCT116 cells
[6] = molecular target: OTUB1 (human) (UniProt Q96FW1); assay: anti-HA IP-MS, WT HCT116 cells
[7] = molecular target: USP25 (human) (UniProt Q9UHP3); assay: anti-HA IP-MS, WT HCT116 cells
[8] = molecular target: USP13 (human) (UniProt Q92995); assay: anti-HA IP-MS, WT HCT116 cells
[9] = molecular target: USP14 (human) (UniProt P54578); assay: anti-HA IP-MS, WT HCT116 cells
[10] = molecular target: USP34; assay: anti-HA IP-MS, WT HCT116 cells
[11] = molecular target: USP9X (human) (UniProt Q93008); assay: anti-HA IP-MS, WT HCT116 cells
[12] = molecular target: UCHL5 (human) (UniProt Q9Y5K5); assay: anti-HA IP-MS, WT HCT116 cells
[13] = molecular target: BRCC36 (human) (UniProt P46736); assay: anti-HA IP-MS, WT HCT116 cells
[14] = molecular target: USP15 (human) (UniProt Q9Y4E8); assay: anti-HA IP-MS, WT HCT116 cells
[15] = molecular target: USP47 (human) (UniProt Q96K76); assay: anti-HA IP-MS, WT HCT116 cells
[16] = molecular target: USP10; assay: anti-HA IP-MS, HEK293T cells
[17] = molecular target: USP8 (human) (UniProt P40818); assay: anti-HA IP-MS, HEK293T cells
[18] = molecular target: USP11 (human) (UniProt P51784); assay: anti-HA IP-MS, HEK293T cells
[19] = molecular target: USP24 (human) (UniProt Q9UPU5); assay: anti-HA IP-MS, HEK293T cells
[20] = molecular target: UCHL1 (UniProt P09936); assay: anti-HA IP-MS, HEK293T cells
[21] = molecular target: USP19 (human) (UniProt O94966); assay: anti-HA IP-MS, HEK293T cells
[22] = molecular target: OTUB1 (human) (UniProt Q96FW1); assay: anti-HA IP-MS, HEK293T cells
[23] = molecular target: USP25 (human) (UniProt Q9UHP3); assay: anti-HA IP-MS, HEK293T cells
[24] = molecular target: USP13 (human) (UniProt Q92995); assay: anti-HA IP-MS, HEK293T cells
[25] = molecular target: USP14 (human) (UniProt P54578); assay: anti-HA IP-MS, HEK293T cells
[26] = molecular target: USP34; assay: anti-HA IP-MS, HEK293T cells
[27] = molecular target: USP9X (human) (UniProt Q93008); assay: anti-HA IP-MS, HEK293T cells
[28] = molecular target: UCHL5 (human) (UniProt Q9Y5K5); assay: anti-HA IP-MS, HEK293T cells
[29] = molecular target: BRCC36 (human) (UniProt P46736); assay: anti-HA IP-MS, HEK293T cells
[30] = molecular target: USP15 (human) (UniProt Q9Y4E8); assay: anti-HA IP-MS, HEK293T cells
[31] = molecular target: USP47 (human) (UniProt Q96K76); assay: anti-HA IP-MS, HEK293T cells

Sequence of USP14 (human) (P54578 whole entry): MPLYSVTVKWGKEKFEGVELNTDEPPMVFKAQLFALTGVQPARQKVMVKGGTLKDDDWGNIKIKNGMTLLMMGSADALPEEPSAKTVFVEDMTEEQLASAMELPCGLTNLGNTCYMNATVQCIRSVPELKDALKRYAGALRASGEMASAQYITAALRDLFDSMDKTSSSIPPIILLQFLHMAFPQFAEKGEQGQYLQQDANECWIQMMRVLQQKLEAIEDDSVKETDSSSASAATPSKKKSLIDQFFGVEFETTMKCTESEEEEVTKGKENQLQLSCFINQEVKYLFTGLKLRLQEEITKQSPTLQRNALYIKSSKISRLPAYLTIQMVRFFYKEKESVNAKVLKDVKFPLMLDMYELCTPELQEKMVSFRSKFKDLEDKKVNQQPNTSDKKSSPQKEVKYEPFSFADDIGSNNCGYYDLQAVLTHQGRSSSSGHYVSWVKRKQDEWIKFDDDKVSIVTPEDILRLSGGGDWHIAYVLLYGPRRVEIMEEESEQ
Sequence of UCHL1 (P09936 1-220 limits assumed): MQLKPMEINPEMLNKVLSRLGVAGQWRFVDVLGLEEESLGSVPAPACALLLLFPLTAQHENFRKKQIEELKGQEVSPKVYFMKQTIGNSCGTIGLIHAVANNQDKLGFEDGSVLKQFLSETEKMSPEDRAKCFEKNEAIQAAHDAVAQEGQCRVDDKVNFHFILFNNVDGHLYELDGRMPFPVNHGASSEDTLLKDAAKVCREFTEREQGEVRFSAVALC
Sequence of OTUB1 (human) (Q96FW1 2-271 limits assumed): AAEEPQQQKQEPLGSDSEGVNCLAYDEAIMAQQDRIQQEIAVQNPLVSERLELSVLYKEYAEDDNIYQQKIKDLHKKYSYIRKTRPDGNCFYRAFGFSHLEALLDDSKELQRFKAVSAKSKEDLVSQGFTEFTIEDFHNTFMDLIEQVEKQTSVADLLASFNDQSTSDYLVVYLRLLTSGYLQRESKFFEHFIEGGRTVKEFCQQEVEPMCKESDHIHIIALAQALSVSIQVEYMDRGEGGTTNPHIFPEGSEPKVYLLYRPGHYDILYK
Sequence of USP9X (human) (Q93008 whole entry): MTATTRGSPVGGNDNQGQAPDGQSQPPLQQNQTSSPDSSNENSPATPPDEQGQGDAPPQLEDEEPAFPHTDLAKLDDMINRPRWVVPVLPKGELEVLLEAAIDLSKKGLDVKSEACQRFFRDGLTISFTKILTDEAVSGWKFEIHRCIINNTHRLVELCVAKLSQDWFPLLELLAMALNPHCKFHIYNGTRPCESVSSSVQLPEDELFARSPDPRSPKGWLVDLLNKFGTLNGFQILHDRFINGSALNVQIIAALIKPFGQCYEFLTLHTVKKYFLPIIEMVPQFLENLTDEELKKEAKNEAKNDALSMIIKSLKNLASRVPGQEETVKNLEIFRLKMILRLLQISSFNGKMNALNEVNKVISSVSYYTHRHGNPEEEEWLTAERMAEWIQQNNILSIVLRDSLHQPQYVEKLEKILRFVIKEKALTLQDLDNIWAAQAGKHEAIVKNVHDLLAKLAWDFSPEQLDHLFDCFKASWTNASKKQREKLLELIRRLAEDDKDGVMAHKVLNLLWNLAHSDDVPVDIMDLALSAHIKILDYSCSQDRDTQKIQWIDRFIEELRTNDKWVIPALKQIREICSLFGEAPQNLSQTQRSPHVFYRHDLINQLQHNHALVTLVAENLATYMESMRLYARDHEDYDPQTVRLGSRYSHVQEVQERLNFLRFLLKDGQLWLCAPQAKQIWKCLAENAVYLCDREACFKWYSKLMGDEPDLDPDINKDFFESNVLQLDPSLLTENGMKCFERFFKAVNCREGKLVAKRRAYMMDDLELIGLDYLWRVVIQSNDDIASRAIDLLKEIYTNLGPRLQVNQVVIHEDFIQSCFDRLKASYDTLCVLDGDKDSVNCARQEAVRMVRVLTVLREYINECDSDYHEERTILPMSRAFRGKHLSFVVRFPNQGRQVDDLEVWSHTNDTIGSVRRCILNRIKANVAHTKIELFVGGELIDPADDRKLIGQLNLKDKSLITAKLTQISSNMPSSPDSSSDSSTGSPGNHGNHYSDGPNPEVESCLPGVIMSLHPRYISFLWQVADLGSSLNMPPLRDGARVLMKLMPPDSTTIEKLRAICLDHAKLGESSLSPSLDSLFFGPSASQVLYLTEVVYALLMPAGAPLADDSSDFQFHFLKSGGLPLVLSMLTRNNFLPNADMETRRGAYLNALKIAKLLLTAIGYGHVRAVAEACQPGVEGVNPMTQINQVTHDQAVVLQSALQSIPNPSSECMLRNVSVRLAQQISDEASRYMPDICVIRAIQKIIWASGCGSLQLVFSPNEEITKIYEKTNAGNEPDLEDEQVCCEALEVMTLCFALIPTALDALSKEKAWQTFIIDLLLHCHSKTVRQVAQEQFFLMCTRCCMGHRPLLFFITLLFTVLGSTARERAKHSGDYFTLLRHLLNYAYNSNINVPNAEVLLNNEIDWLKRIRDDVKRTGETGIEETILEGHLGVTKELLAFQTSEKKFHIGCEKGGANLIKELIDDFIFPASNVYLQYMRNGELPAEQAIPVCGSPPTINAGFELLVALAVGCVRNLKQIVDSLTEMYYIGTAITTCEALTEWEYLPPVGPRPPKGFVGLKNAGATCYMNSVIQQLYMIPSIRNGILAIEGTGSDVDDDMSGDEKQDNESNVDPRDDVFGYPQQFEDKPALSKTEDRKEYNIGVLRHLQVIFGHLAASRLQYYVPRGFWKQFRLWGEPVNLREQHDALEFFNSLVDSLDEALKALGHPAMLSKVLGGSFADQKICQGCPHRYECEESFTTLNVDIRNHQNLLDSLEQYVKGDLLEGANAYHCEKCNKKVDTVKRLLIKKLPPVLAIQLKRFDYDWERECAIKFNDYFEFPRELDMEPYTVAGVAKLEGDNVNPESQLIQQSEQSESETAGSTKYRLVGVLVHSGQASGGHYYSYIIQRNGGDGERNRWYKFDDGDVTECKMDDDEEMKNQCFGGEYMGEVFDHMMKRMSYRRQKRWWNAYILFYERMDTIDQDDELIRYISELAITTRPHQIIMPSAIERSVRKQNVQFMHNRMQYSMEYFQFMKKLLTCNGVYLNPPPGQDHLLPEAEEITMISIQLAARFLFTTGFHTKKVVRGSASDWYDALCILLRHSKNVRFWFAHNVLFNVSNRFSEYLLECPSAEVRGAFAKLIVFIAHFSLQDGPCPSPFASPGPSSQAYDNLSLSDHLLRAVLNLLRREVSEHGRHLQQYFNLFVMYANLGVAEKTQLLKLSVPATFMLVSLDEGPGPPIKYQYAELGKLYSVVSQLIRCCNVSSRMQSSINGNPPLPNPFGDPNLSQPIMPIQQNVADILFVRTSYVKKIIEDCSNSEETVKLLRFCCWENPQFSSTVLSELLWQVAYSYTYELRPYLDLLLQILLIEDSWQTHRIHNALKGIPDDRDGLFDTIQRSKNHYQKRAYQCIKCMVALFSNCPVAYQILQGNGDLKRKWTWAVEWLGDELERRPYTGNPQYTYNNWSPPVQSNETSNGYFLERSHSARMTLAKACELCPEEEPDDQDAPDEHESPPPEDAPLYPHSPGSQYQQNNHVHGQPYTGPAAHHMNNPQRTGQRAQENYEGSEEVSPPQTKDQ
Sequence of USP25 (human) (Q9UHP3 whole entry): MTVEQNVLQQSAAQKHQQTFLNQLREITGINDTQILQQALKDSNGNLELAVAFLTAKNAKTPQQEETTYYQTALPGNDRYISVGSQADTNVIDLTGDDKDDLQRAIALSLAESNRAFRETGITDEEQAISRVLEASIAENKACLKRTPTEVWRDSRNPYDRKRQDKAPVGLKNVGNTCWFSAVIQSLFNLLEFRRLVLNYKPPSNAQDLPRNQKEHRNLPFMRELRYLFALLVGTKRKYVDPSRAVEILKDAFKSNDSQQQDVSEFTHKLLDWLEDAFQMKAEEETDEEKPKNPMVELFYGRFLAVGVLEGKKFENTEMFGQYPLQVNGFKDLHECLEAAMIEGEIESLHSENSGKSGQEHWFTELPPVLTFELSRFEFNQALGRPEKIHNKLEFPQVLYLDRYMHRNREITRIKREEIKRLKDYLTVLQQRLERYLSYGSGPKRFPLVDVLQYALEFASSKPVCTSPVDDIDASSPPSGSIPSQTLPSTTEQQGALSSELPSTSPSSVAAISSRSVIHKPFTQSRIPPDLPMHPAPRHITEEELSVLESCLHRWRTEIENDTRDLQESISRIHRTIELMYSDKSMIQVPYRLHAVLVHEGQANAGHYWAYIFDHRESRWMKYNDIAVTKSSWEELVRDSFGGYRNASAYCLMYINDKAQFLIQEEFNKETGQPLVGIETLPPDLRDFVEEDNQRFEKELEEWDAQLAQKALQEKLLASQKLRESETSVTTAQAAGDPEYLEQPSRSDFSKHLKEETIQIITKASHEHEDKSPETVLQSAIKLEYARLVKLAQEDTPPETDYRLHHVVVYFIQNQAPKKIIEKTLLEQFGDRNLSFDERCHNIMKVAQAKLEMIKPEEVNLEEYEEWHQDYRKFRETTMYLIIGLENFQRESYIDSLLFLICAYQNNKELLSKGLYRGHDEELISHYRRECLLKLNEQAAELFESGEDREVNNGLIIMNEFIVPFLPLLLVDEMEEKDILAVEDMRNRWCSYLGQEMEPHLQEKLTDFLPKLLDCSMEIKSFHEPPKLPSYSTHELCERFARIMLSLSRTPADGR
Sequence of BRCC36 (human) (P46736 2-316 limits assumed): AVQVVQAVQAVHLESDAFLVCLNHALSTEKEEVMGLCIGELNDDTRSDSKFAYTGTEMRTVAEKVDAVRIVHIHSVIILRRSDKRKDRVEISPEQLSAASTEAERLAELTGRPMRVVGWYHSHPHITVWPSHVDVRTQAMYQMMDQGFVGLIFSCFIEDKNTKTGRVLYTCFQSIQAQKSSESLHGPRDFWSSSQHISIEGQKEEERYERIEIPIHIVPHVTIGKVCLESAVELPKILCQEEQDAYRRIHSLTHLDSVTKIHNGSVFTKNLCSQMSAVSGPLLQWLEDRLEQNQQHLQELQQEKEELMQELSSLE

total peptides (unique peptides) [1]: 8 peptides | total peptides (unique peptides) [2]: 3 peptides | total peptides (unique peptides) [3]: 10 peptides | total peptides (unique peptides) [4]: 1 peptides | total peptides (unique peptides) [5]: 0 peptides | total peptides (unique peptides) [6]: 10 peptides | total peptides (unique peptides) [7]: 34 peptides | total peptides (unique peptides) [8]: 1 peptides | total peptides (unique peptides) [9]: 3 peptides | total peptides (unique peptides) [10]: 0 peptides | total peptides (unique peptides) [11]: 12 peptides | total peptides (unique peptides) [12]: 6 peptides | total peptides (unique peptides) [13]: 1 peptides | total peptides (unique peptides) [14]: 7 peptides | total peptides (unique peptides) [15]: 0 peptides | total peptides (unique peptides) [16]: 6 peptides | total peptides (unique peptides) [17]: 1 peptides | total peptides (unique peptides) [18]: 4 peptides | total peptides (unique peptides) [19]: 20 peptides | total peptides (unique peptides) [20]: 3 peptides | total peptides (unique peptides) [21]: 54 peptides | total peptides (unique peptides) [22]: 9 peptides | total peptides (unique peptides) [23]: 2 peptides | total peptides (unique peptides) [24]: 0 peptides | total peptides (unique peptides) [25]: 4 peptides | total peptides (unique peptides) [26]: 1 peptides | total peptides (unique peptides) [27]: 40 peptides | total peptides (unique peptides) [28]: 9 peptides | total peptides (unique peptides) [29]: 0 peptides | total peptides (unique peptides) [30]: 1 peptides | total peptides (unique peptides) [31]: 2 peptides
Substance: HA-UbΔGG
